The DeepSol protein solubility set

experiment: soluble on expression in E. coli; label from the status in PepcDB or PDB records

Soluble on expression in E. coli, not soluble:
MGSDKIHHHHHHMSDAHYDMHKRNGYSSDEPYPEIKVLGPNKYYAELLMDDYAGVSSEFTSVNQYLYHNFDLDETHRELSEMWINISITEMLHMEILAKTIRLLGGNPVYRGSTSSCGAYWNGGFVCYGNSICNRLKLDLHLEHVAINNYYKDISLIEDPYIKAILNRIILDEKLHVSLFEKAIEKYCK
MGSDKIHHHHHHMSDITSKVSLTNVAADNTVSSEQAKDINSIGQDLGIDMMASLQQAPFDEMLIREYLLDNPDFFNRYPELLVAMRVPHAERGAVSLVERRQELLRQRVSQLEEEITSLMNIATHNEKIFKFNTELSFKMLASQDLGELRLVLSEGLKNEFGFSHVRLITVHDIDSELAKIWRHRVQSGYYFGRLTQSESKRLFGSEVGSVALTKLSDENGQVIFAIASNDPTHFHPDMDSLLFSQLRRLLDHMLPKM
MGSDKIHHHHHHMSDTDKQAFLTSVSSKEQVKKVIEPRKVTKCPHCQSTHFVKNGKDCGNQRFLCRDCKKSFVEQTGTILYNTQKDIEVWEKYIHCMIEKYPLRKCAEICKINLATAFTWRHKILDALQNMMNEVELDGIVQADETYSTISYKGHHKNFNLPRPAHKRGTRATKRGISKEQVCVPCGINLDGKSVARISNLGKPSLKNIN
MGSDKIHHHHHHMSDTLRRKQAADHAMRHWVHQSRGPVPIGSDAHKQMFCNMLLDTHNPYKPAVIDWPALRPDALRRLTSLPIWDIAVQTEGRASVRVATFASTVRDPLLRAALELDAAEEARHKVVLSKLVQAYGIRLAPEPAYPAPKDAEWAWMVTGFSECIDSFFAFGLFRSAQRSGYFPPELVETFEPVIQEEGRHILFFANWFGWYWRNLSWWRRPWLFARVAAVWAYLIWERIGIARGIDADGVARDANFPANTAATVGNALNPRELIELCLVENARRMAGYDTRLLRPTIVPRLARFALRFIRK
MGSDKIHHHHHHMSEAMQLTLPKSGSIEAYMQSAYSIPMLTAEKEHDLATRLYNENDLQAAQELIMSHLRFVIHVAKGYSGYGLPHADLVQEGNVGLMKAVKRFNPEVGVRLVSFAVHWIKAEIHEFVLKNWRIVKVATTKAQRKLFFNLRKNKKRLGWFSTEEVNTVAENLGVTTKDVMEMESRMSSHDQAFELSKDDDDNLGSSSFSPAQYLQDKQSDLAVEVENDNWDNHANKRLSTALVTLDERSQDIIKTRWLTEDKTTLQELANKYQISAERVRQLEKNALSKLKNTMVFD
MGSDKIHHHHHHMSEEQKTISISELESMNIKQLYEIAKSLGIPRYTSMRKRDLIFAILKAQTESTGYFFGEGVLEIHPEGFGFLRRIEDNLLPSNDDIYISPSQIRKFNLNTGDIISGVIRKPKEGEKYFAMIKIEAINYRPVEAVNDRVNFDNLTPDYPRERFILETDPKIYSTRLIDLFAPIGKGQRGMIVAPPKAGKTTILKEIANGIAENHPDTIRIILLIDERPEEVTDIRESTNAIVIAAPFDMPPDKQVKVAELTLEMAKRLVEFNYDVVILLDSLTRLARVYNIVVPPSGKLLTGGVDPAALYKPKRFFGAARNTREGGSLTIIATALVETGSKMDEVIFEEFKGTGNMELVLSRQLANKRIFPAINLLLSGTRREELLLDEETLKKVWLLRRMLSAMTEEEGLTLILNKLSETSSNEEFLKLIDKEKARY
MGSDKIHHHHHHMSEIEAQLPVIHFADAKTFETWIAEQGSDCKGLWVKFAKKASGIASITPREALDVALCYGWIDGQRIGSDSDFYLNKYTPRRARSRWSQVNCARATELIAEGRMTPRGLAEVERARTDGRWDAAAPPPSKATVPDDLHDALAQNAAAKMLFDELDSRNRYAILFRIHDAKKSETRAARIEKYVGMLARGETPYPRRKAR
MGSDKIHHHHHHMSEIQLPSQFESFAEARKQGFIAVKNLKEQGKKVAGVFCTYAPVELVLAAGAVPVGLCAFSDETIPEAEKVLPRNLCPLVKSSYGFAITDKCPYMFFSDLMIGETTCDGKKKMYELLGEFKNLHVMQLPQTAAAEASQELWYQEVLRLKDRIEQDFGVTITEEGIKNAIKVKNEERKLLKEFYELSKSCPPPITGAEQLKVLYGSQFKFDPEAKNREIRETIDKVKADQAKGVENVSPAAKRILITGCPLAGVTEKVVRAIEESGGVVVAYENCIGVKPVERLVDETIDPYKALADRYLQIGCSVMTPNPNRLDLLSRLVREFKVDGVVEMTLQACHTYNLETTQIRKHMQKEDMPFISVETDYSTSDAAQLKTRLAAFIEMLS
MGSDKIHHHHHHMSELNAQQVVDYLQHHPDFLIQHPELLAQLELQQQAQGATSLVHIQQRQLREHNTLLKNQIASMNKYAAQNEQVYRLFSLCHQQLCSNNDFDALASNLQDIICSNPDISDCRLVKYDTKYAQLVEHRLSNSGHYLGRINQQERDLLFSDTAQSTAIYLIGDINKPIAILAFASNNANHFEPAQDTLFVLDFVVALQSRLLELA
MGSDKIHHHHHHMSESCILFFVKYPEPGKVKTRLGEVVGNDKAAMLYRHFVQDMLQGLARLHADLHICYVPGDADLPEKFKAWLGPQHMFAAQQGLDLGERMKHAMQKAFDDGYDRVVLMGSDIPDYPCELVQKALNDLQHYDAAIGPAFDGGYYLIGFRKDSFCPDVFDGIRWGEADVYQPTVEKMRRARLEVLQLPDWNDVDTVWDLNVLYRTNKNSSFRRSSTYALLRENDALIRQYDIDLPGMAPVEKE
MGSDKIHHHHHHMSETEDSIVGIKDKELKMIRKILNRYEMKLVDIKKIRSIYKIKTENSTVCLKKVSHEFKKVENGNYLVRELKKNNFNNIADYISTKDGKLIVFYKNLAFYLTEWVDGEECNLNDINEAINASKLLAKFHLATQNINFHKIKLKNNNSKNWVEIFAKCLRDMESFKSIIQNKRIKNKFDFMYEDLIESYYNRGLFSIKILNESSYFKIIKGSNNKKTVCHNSFYYQNIIKGKKDYYIIHLNSIIIDLPITDLCKMIRTLMTKKEYMWNFEKAKQIIQAYNSVNKLSKDEMEVMLALIAFPHKFWKLGKKRYVRHKNWSENKYINKLNKIVLNNKCEQSFIEEYISYLDDIKEFTNFN
MGSDKIHHHHHHMSETNAQKVQEVIIAGMSKTVANYDYAMSELEALVAANNMHAALRIDQGLEKPNPATFFGKGKVVEIKEVAAANDLHIMVINADLTPSQVRNLEEQTDIQIIDRTGLILEIFGNRARSKEAKLQVKIAQLQYQLPRLRTSISNRLDQQAGAAAGGGGGFTNRGAGETQLELNRRTIQDRISHAKHELKELNKDEVVRRSQRDKAGLPNVALVGYTNAGKSTTMNGLVKLFGKGEDKQVFEKDMLFATLDTSIRQLTFPDNKQLLLSDTVGFVSDLPHNLINAFRSTLAEAANADLLIQVIDYADPHYKEMMATTEKTLKEIGVHDVPMIYAFNKADLTEADYPNQQDDQLIYTARDEASLQALTSMIKAKVFKNYVTTTLLIPFNDGEVVAYLNDHANILKTDYLADGTQLTVELNTVDAQRYEKYVVTPA
MGSDKIHHHHHHMSETVTESYIGSAIVYIDGRDCGNVSGVKLAIDQETKSLPNYRGGGGNADEVTLIKAVKLSGTFYDFNNDNLALAMRGKIDVLTAAAVVDEDITAVLDGLAPTVHMIDTSVAPVVKNTAGDSTYVLDEDYVVSAAGIRALSGGAITAGQALKLSYTSQAGNALQALTESGKTVSVVVDGINDSTGKPWTLKFYKWKPTPTSGLDLIGTDYGSFDIEGAVLADSSIVATGKSKFFVRSAA
MGSDKIHHHHHHMSGMIGKIQDKKIFSITIIPSSWCNFRCVYCYENDHYKIKNMITTSEMTKRIKLFLENNIKTGFFRKVHIRWYGGEPLLDFKTIIDIMDFTNSIGKTYKTDIIGEIITNGYLLDIVKFKILLEKGVKIFQVTIDGYKDAHDKLRPLLNGKPTFDKIFENLIQTRNVTDNFFMFIRSNVMPDNLDSIKKFLDLASNYFSRDRRYYFTFFPVTRSGGDNDKNLKVIEPKKRMEIIQELYMYATQLGLNIPDKDTLLQIDGVPAMDDLCQALYPFSIIIRNDGKLFKCPLTVMIDDESVGHIEEDGSIVLDESKINRWAKYILSPLSRGCPRLHELGEVVGVEAE
MGSDKIHHHHHHMSIAAEKISSEALFDLLEIFDNQPWMRDLHAELAELWNACETREEQHLLKFLLKKFFLLDAQKEKLALYGISKKIQEWGLNPASTWIVAAANKDEIDGSSAGLQKLKNKINPIEEWHSRFISNIPSASNKVKSGDTIILFDDFIGTGGKMIKKTAWLKRLVTKFDPRNLKFYYVSFSGMQFGLTSLAAETACTTYAHFIFTKAISEALPEQEALTLISAMKSIEERLAVRHKNKQLNDYSLGYEKSEALYCGQNDNCPNNVFPVFWWPSMKNGNNRKTLLKRAG
MGSDKIHHHHHHMSIAIIIATHGVAAEQLLKTTEMLIGEQENVATIDFVSGENAETIMTKYQEKLSTTLAHCDEVLFLVDTWGGSPFNAANRVIGDNTNMDIVTGVNVPMLVETFMARDDNPSLQELVSIALETGRAGVRALKYEEKSAETTALSQPVPEQPQIAVKQQEGNLIVGLARIDDRLIHGQVATRWTKESRVTRIVVVNDDVAKDQVRSTMLKSVAPPGVTAHVVNIEKMIRVYNNPEYANERMMLLFTNPTDVLRLLEAGVDMKSINVGGMAYKDGKKMITSAVAVDDKDIAAFKAIDAMGIELDVRKVSNDSRQYMMDLLKKNNLI
MGSDKIHHHHHHMSIDIDIIKARAKNEYRLSKVRGEAMISVRIPGGILPAHLLTVARDIAETWGNGQIHLTTRQKLAMPGIRYEDIDNVNAALEPFLREIEIELCDVQVEDTKAGYLAIGGRNIVACQGNRICQKANTDTTGLSRRLEKLVYPSPYHLKTVIVGCPNDCAKASMADLGIIGVAKMRFTADRCIGCGACVKACSHHAVGCLALKNGKAVKEESACIGCGECVLACPTLAWQRKPDQLWQVRLGGRTSKKTPRVGKLFLNWVTEDVIKQVIVNLYEFEKEMLGGKPIYLHMGHLIDKGGYLRFKERVLRGVQLNPEAMVAERIYWAEDESVARMHLKPAGH
MGSDKIHHHHHHMSIFFKPPIDIEILFDNEESRKHVDIATRSSNSSYKSMKESLPVYEDGESLGGIVTLRVRDSKKVDHLGIKVSVIGSIDMLKSHGSGNSSSKKVTSSTSSSSSNGSVDVRKNSVDQFLCQSYDLCPAGELQHSQSFPFLFRDLSKRYESYKGKNVDVAYYVKVTVMRKSTDISKIKRFWVYLYNSVTTAPNTLSANETKATTNDIAGGNYAADNASDNTQTKSTQGEAADVNQVLPISHSNNEPKPVRLDIGIENCLHIEFEYAKSQYSLKEVIVGRIYFLLTRLRIKHMELSLITRESSGLQTSNVMTDSTAIRYEIMDGSSVKGETIPIRLFLSGYDLTPNMSCNYFNVKNYLSLVIIDEDGRRYFKQSEITLYRTR
MGSDKIHHHHHHMSIIFDKNLGILEKTIEEIQNEKKHILRTKYGINIKDNSIYDIINFPSSSIDKQISEVLKELFSKIKENGSYFNALKEDLSTPKSSTYEAIRKALLNVEGVKHINILSGPGTINLYLILQDDCFQDQEKKQIKIETKQNIWQAIYYTAPSGTVFKGDIEIEFLNKHNQKKTYKFSLGKKKYAYLKVVYKTEAKDAIYKEIDTQIRDIYNKILTDKYIEMGTSLRYQDFLAPVSIIRGIKELKIGICIKNDETKKITQLSDSDFTFNKDENTKEDEIIIFNTNKRLLINRE
MGSDKIHHHHHHMSIPSTLLGLSGGQFNEIDWSNCAIVMIDFQNEYVDGAMPLGDAGNKATANARLLLYKARNKNIPIFHVAHHGQDNDKIFNPLSSKVDIIDSLQPLDDEKTIIKMHPNAFYDTELQALITSAGKQQIIFAGFMSHMCVSSSVRAAFDLGFESFVCHDACATRDLPSVAGQVITASTVHDSAMAALQDRFAALVATDKLTNS
